Assay results from patent US20220348932A1.

Biological target: NADH-dependent methanol dehydrogenase (MeDH) from Bacillus methanolicus MGA3, internal laboratory designation 2315 (tested as purified 2315A) (Bacillus methanolicus MGA3)
Assay: cell-based or functional assay

- ratio of ACT to MeDH in an in vitro methanol dehydrogenase activation test (5 M methanol, 2 mM NAD, 10 µM MeDH 2315A, pH 7.4) (ACT:MeDH ratio): 10
Substance: activator protein (ACT) from Bacillus methanolicus MGA3, internal laboratory designation 2317 (tested as purified 2317A) (enzyme)
